From patent publication US20170274062A1 (OURO FINO SAUDE ANIMAL LTDA, published 2017)

B1: Exomyc polyprotein 3, Rrp42-P216A-HSP-NrdF (other)
chain: MGSDNEIVAGIMRDHIINLLKEGKRIDDRGFEDYRPIEIEVGVIEKAEGSALVKLGSTQVLVGIKTSLGEPFPDTPNMGVMTTNVELVPLASPTFEPGPPDERAIELARVIDRGIRESKALNLEKMVIVPGKIVRVVFIDVHVLDHDGNLMDAIGIAAIAALLNARVPKVRYNEETGEVETLDETEPLPVEKIPVPVTFAKIGNILVVDPSLDEELVMDGKITITTDETGHISAVQKSEGGAFKLEEVMYAVETAFKKAEEIRKLILEAVEKAKQLEGQKKAVRKEEELETYNPKDEFNILNPGEISDVLLLDVTPLTLGIETLGGIATPLIPRNTTIPVTKSQIFSTAEDNQTEVTISVVQGERQLAADNKMLGRFNLSGIEAAPRGLPQIEVSFSIDVNGITTVSAKDKKTGKEQTITIKNTSTLSEEEINKMIQEAEENREADALKKDKIETTVRAEGLINQLEKSITDQGEKIDPKQKELLEKQIQELKDLLKEDKTDELKLKLDQIEAAAQSFAQATAQQANTSESDPKADDSNTIDAEIKQDGSGKQDEIKKFTFDLLYKLIELEKDYLYDLYSEVGLAESAIKFSIYNAGKFLQNLGYDSPFSKEETEIEPEIFSQLSARADENHDFFSGNGSSYVMALAEETEDEDWEF
notes: also called Rrp42-HSP-NrdF

Key:
[1] = target: T1, Exomyc polyprotein 1, Rrp4-P216B-P36-MHP271; assay: co-expression in E. coli, co-retention on 500 kDa MWCO tangential filtration, SDS-PAGE
T1 construct: Expressed in E. coli BL21 (DE3) from pMRK-EXOMYC; also called Rrp4-P36-MHP271

[2] = target: B1; assay: as above

Binder | binding result [1] | binding result [2]
B1 | binds | –
Exomyc polyprotein 2, Rrp41-P46-P97R1R2 (other, also called Rrp41-P46-97R1R2) MAEKPEGLKLIDENGRRIDGRKKYELRPIKMEVGVLKNANGSAYIEWGKNKIIAAVYGPRELHPKHLQRPDRAILRVRYNMAPFSVEETKSPGPDRRSIEISKVIKGALEPALILEMFPRTAIDVFIEVLQADAGTRVAGITAASLALADAGIPMRDLVAACAAGKIEGEIVLDLNKEEDNYGEADVPVAIMPLKNDITLLQMDGYLTKDEFIEAVKLAIKGAKAVYQKQREALKEKYLKIAQEVEGSPKHKVSNDSIRIALTDPDNPRWISAQKDIISYVDETEAATSTITKNQDAQNNWLTQQANLSPAPKGFIIAPENGSGVGTAVNTIADKGIPIVAYDRLITGSDKYDWYVSFDNEKVGELQGLSLAAGLLGKEDGAFDSIDQMNEYLKSHMPQETISFYTIAGSQDDNNSQYFYNGAMKVLKELMKNSQNKIIDLSPEGENAVYVPGWNYGTAGQRIQSFLTINKDPAGGNKIKAVGSKPASIFKGFLAPNDGMAEQAITKLKLEGFDTQKIFVTGQDYNDKAKTFIKDGDQNMTIYKPDKVLGKVAVEVLRVLIAKKNKASRSEVENELKAKLPNISFKYDNQTYKVQGKNINTILVSPVIVTKANVDNPGAAKPEAAKPVAAKPETTKPVAAKPEAAKPEAAKPVAAKPEAAKPVAAKPEAAKPVAAKPEAAKPVAAKPEAAKPVATNTGFSLTNKPKEDYFPMTEGSSNQGKKSEGTPNQGKKAEGAPNQGKKAEGTPNQGKKAEGAPSQQSPTTE | binds | binds
